B1: ADP-ribosylation factor 4 (Mus musculus), P61750 (parent)
chain: MGLTISSLFSRLFGKKQMRILMVGLDAAGKTTILYKLKLGEIVTTIPTIGFNVETVEYKNICFTVWDVGGQDKIRPLWRHYFQNTQGLIFVVDSNDRERIQEGAAVLQKMLLEDELQDAVLLLFANKQDLPNAMAISEMTDKLGLQSLRNRTWYVQATCATQGTGLYEGLDWLSNELSKR
B2: ADP-ribosylation factor 5 (Mus musculus), P84084 (parent)
chain: MGLTVSALFSRIFGKKQMRILMVGLDAAGKTTILYKLKLGEIVTTIPTIGFNVETVEYKNICFTVWDVGGQDKIRPLWRHYFQNTQGLIFVVDSNDRERVQESADELQKMLQEDELRDAVLLVFANKQDMPNAMPVSELTDKLGLQHLRSRTWYVQATCATQGTGLYDGLDWLSHELSKR

Variants of: B1
Conditions: with caps2_mouse Cadps2, Q8BYR5
Target sequence in this assay (Q8BYR5 whole entry): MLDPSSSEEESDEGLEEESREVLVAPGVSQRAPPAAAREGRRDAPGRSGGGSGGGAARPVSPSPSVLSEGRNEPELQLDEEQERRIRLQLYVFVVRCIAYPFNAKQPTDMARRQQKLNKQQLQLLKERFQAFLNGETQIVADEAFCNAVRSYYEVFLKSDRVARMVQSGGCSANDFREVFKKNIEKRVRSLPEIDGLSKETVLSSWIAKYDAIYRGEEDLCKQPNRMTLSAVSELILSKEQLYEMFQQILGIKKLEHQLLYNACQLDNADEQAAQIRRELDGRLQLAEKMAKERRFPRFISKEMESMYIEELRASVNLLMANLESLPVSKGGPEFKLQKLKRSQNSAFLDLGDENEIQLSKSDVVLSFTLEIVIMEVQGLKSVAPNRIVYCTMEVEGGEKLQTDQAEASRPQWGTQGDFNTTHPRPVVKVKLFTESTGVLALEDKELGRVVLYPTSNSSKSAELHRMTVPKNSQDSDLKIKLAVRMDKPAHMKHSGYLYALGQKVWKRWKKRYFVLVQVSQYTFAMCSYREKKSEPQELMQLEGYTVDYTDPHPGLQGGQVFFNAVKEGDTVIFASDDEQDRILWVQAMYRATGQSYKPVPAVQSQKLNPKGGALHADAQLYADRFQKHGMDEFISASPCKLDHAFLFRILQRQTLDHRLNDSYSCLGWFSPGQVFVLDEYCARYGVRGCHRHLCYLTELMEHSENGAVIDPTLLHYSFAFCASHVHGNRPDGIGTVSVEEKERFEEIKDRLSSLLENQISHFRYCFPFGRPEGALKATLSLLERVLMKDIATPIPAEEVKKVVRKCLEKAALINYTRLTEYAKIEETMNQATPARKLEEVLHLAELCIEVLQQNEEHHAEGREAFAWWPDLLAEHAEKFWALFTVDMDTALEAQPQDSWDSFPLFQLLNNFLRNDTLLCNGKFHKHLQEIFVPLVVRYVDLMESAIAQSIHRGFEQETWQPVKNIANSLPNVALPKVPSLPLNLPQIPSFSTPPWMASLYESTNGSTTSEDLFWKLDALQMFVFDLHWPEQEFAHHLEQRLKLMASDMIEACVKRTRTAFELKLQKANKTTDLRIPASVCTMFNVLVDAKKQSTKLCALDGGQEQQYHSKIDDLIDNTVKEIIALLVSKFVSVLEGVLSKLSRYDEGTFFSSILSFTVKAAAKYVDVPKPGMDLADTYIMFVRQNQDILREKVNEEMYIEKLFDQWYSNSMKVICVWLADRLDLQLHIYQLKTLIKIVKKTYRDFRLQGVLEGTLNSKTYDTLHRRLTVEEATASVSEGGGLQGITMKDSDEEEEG
In the case of Q71L, the “effect of a mutation on the interaction” value is reported as “disrupting interaction”.

Variants of: B1
Conditions: with caps2_mouse Cadps2, Q8BYR5
Remark: another data set of the same source
Target sequence in this assay (Q8BYR5 whole entry): as above
T31N was tested, and the “effect of a mutation on the interaction” value was “increasing interaction”.

Variants of: B2
Conditions: with caps2_mouse Cadps2, Q8BYR5
Target sequence in this assay (Q8BYR5 whole entry): as above
For Q71L, the “effect of a mutation on the interaction” value was “disrupting interaction”.

Variants of: B2
Conditions: with caps2_mouse Cadps2, Q8BYR5
Remark: another data set of the same source
Target sequence in this assay (Q8BYR5 whole entry): as above
T31N was tested, and the “effect of a mutation on the interaction” value was “increasing interaction”.

Variants of: B2
Conditions: with caps2_mouse Cadps2, Q8BYR5
Remark: another data set of the same source
Target sequence in this assay (Q8BYR5 whole entry): as above
In the case of S6A, the “effect of a mutation on the interaction” value is reported as “disrupting interaction”.

From IntAct's records for PubMed 22111578
